According to patent publication US12072338B2, “Pharmaceutical peptides for the treatment of inflammatory diseases” (PROTAGONISTS LTD., priority 2007, dated 2024):

Key:
[1] = target: T1, Mig (Homo sapiens, UniProt Q07325); test: Micro-array analysis of chemokine binding peptides: Mig
T1 construct: purchased 300-26
T1 sequence (Q07325 23-125): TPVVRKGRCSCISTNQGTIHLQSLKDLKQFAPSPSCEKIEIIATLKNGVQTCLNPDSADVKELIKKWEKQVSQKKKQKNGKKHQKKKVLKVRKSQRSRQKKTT
Experimental: (§1) (1) Printing: Chemokine (CK) solution (in water) was serially diluted with Print Reagent (GenTel BioSurfaces USA) to final concentrations of 50 μg and 25 μg/ml. BSA/BSA-Biotin control solutions (in water) were diluted with Print Reagent to 100 μg/ml. Amplified stock of M13 phage control (M13KEgIII Cloning Vector, New England Biolabs, Cat.No.E8101S) was stored in Tris Buffered Saline (TBS; pH7.5, 4° C.) and diluted with Print Reagent to the working titre (10^8 pfu/μl). An automated spotting robot (16 pin print tool, 0.4 mm head; BioRobotics, UK) was used to print the CK/BSA control/M13 control, 5 repeats per sample (CK 25 μg/ml and 50 μg/ml; BSA 100 μg/ml; M13 20 μl), on PATH Protein Microarray Slides (GenTel, Prod.No. 2-1005/-1025) at […], and 50-70% relative humidity. Printed micro-array slides were stored at Room Temperature (RT) or 4° C. for at least 24 h before use.
(§2) (2) Blocking: Block Buffer (500 μl/partition; PATHblock, GenTel, Prod.No. 2-1014) was applied to the slide for 1 hour at room temp (RT). After removal of Block Buffer, the slide was air dried for 25 minutes;
(§3) (3) Phage Presented Peptide Binding: Amplified recombinant phage stock was stored in TBS and diluted with Wash Buffer to working titer (10^7 pfu/μl). Recombinant phage suspension (300 μl) was applied per partition and incubated at RT for 1 hour with gentle agitation.
(§4) (4) First Washing: The slides were washed twice with Wash Buffer 300 μl/partition).
(§5) (5) Primary Antibody (Ab) Labeling: The slides were incubated with the Primary Ab (1 mg/ml diluted ×2500 (Wash Reagent), 300 μl; Mouse Anti-M13 monoclonal Ab; Amersham Biosciences, UK; Product Code 27-9420-01) for 45 minutes at RT.
(§6) (6) Second Washing: The slides were washed twice with Wash Buffer (300 μl/partition).
(§7) (7) Secondary Ab Labeling: The slides were incubated with Secondary Ab (1.5 mg/ml diluted ×5000 (Wash Reagent), 300 μl; Cy3-conjugated AffiniPure Goat Anti-Mouse IgG; Jackson ImmunoReserch Labs, USA; Product Code 115-165-062).
(§8) (8) Third Washing: The slides were washed twice with Wash Buffer (300 μl/partition).
(§9) (9) Rinse: the slides were rinsed twice with Rinse Buffer (PATHrinse, GenTel, Prod.No. 2-1018) then dried well.
(§10) (10) Scanning: The peptide-bound, labeled slide was scanned (Laser Intensity 80%, Gain 80%, Resolution 10 μm) with a ScanArray Life Scanner (Packard BioChip Technologies, USA).
(§11) (11) Analysis: Quantitative analysis of micro-array was performed by the SpotReader program of Niles Scientific (USA) and presented as Relative Fluorescence (RF) as a function of CK concentration. Micro-array readout (Cy3 fluorescence) was quantified to determine the relative binding affinities of a CBP for the CKs and by inference, the specificity of the CBP for binding to a CK.

[2] = target: T2, IP-10 (Homo sapiens, UniProt P02778); test: Micro-array analysis of chemokine binding peptides: IP-10
T2 construct: purchased 300-12
T2 sequence (P02778 22-98): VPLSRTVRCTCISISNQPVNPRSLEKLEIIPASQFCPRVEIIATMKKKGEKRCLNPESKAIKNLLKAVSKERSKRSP
Experimental: as §1, §2, §3, §4, §5, §6, §7, §8, §9, §10, §11

[3] = target: T3, I-TAC (Homo sapiens, UniProt O14625); test: Micro-array analysis of chemokine binding peptides: I-TAC
T3 construct: purchased 300-46
T3 sequence (O14625 22-94): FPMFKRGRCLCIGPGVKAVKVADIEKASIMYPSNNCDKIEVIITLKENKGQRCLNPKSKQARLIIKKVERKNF
Experimental: as §1, §2, §3, §4, §5, §6, §7, §8, §9, §10, §11

[4] = target: T4, I-309 (Homo sapiens, UniProt P22362); test: Micro-array analysis of chemokine binding peptides: I-309
T4 construct: purchased 300-37
T4 sequence (P22362 24-96): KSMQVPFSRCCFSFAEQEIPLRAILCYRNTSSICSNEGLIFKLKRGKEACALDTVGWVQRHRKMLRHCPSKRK
Experimental: as §1, §2, §3, §4, §5, §6, §7, §8, §9, §10, §11

[5] = target: T5, MCP-2 (Homo sapiens, UniProt P80075); test: Micro-array analysis of chemokine binding peptides: MCP-2; settings: limit = start of the upper 75% of that peptide's response range
T5 construct: purchased 300-15
T5 sequence (P80075 24-99): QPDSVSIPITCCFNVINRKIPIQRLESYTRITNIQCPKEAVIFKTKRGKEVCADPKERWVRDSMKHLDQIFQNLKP
Experimental: as §1, §2, §3, §4, §5, §6, §7, §8, §9, §10, §11

[6] = target: T6, MCP-4 (Homo sapiens, UniProt Q99616); test: Micro-array analysis of chemokine binding peptides: MCP-4; settings: limit = start of the upper 75% of that peptide's response range
T6 construct: purchased 300-24
T6 sequence (Q99616 17-98): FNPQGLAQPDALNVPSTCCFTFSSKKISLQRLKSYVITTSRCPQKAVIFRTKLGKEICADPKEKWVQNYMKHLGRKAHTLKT
Experimental: as §1, §2, §3, §4, §5, §6, §7, §8, §9, §10, §11

[7] = target: T7, Eotaxin (Homo sapiens, UniProt P51671); test: Micro-array analysis of chemokine binding peptides: Eotaxin
T7 construct: purchased 300-21
Experimental: as §1, §2, §3, §4, §5, §6, §7, §8, §9, §10, §11

[8] = target: T8, Eotaxin 3 (Homo sapiens, UniProt Q9Y258); test: Micro-array analysis of chemokine binding peptides: Eotaxin 3
T8 construct: purchased 300-48
T8 sequence (Q9Y258 24-94): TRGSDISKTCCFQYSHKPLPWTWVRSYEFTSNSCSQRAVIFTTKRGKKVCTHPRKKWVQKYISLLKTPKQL
Experimental: as §1, §2, §3, §4, §5, §6, §7, §8, §9, §10, §11

[9] = target: T9, SDF1-β (Homo sapiens, UniProt P48061); test: Micro-array analysis of chemokine binding peptides: SDF1-β
T9 construct: purchased 300-28b
T9 sequence (P48061 22-93): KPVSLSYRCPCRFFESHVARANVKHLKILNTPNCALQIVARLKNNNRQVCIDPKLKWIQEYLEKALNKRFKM
Experimental: as §1, §2, §3, §4, §5, §6, §7, §8, §9, §10, §11

[10] = target: T10, BCA-1 (Homo sapiens, UniProt O43927); test: Micro-array analysis of chemokine binding peptides: BCA-1
T10 construct: purchased 300-47
T10 sequence (O43927 23-109): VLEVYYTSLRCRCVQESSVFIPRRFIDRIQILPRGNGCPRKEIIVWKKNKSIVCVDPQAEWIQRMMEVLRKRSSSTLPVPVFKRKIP
Experimental: as §1, §2, §3, §4, §5, §6, §7, §8, §9, §10, §11

[11] = target: T11, TECK (Homo sapiens, UniProt O15444); test: Micro-array analysis of chemokine binding peptides: TECK
T11 construct: purchased 300-45
T11 sequence (O15444 24-150): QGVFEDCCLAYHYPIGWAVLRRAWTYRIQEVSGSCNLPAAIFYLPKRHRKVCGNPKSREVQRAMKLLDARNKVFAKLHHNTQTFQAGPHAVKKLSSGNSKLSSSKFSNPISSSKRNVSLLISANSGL
Experimental: as §1, §2, §3, §4, §5, §6, §7, §8, §9, §10, §11

[12] = target: T12, Lymphotactin (Homo sapiens, UniProt P47992); test: Micro-array analysis of chemokine binding peptides: Lymphotactin
T12 construct: purchased 300-20
T12 sequence (P47992 22-114): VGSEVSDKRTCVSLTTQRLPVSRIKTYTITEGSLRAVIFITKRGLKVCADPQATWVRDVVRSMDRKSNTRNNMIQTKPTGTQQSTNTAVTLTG
Experimental: as §1, §2, §3, §4, §5, §6, §7, §8, §9, §10, §11

[13] = test system: IL-8; test: Micro-array analysis of chemokine binding peptides: IL-8; settings: limit = start of the upper 75% of that peptide's response range
IL-8, sequence (P10145 28-99 limits assumed): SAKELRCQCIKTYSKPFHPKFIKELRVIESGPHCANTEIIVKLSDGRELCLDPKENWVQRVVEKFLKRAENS
Experimental: as §1, §2, §3, §4, §5, §6, §7, §8, §9, §10, §11

[14] = target: T13, RANTES (Homo sapiens, UniProt P13501); test: Micro-array analysis of chemokine binding peptides: RANTES; settings: limit = start of the upper 75% of that peptide's response range
T13 construct: purchased 300-06
T13 sequence (P13501 24-91): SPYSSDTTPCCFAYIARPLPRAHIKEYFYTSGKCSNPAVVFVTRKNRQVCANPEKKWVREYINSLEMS
Experimental: as §1, §2, §3, §4, §5, §6, §7, §8, §9, §10, §11

[15] = target: T14, Fractalkine (Homo sapiens, UniProt P78423); test: Micro-array analysis of chemokine binding peptides: Fractalkine
T14 construct: purchased 300-31
T14 sequence (P78423 25-100 limits assumed): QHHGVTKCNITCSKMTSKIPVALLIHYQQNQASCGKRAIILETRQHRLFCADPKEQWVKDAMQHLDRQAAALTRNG
Experimental: as §1, §2, §3, §4, §5, §6, §7, §8, §9, §10, §11

[16] = target: T15, Exodus-2 (Homo sapiens, UniProt O00585); test: Micro-array analysis of chemokine binding peptides: Exodus-2
T15 construct: purchased 300-35
T15 sequence (O00585 24-134): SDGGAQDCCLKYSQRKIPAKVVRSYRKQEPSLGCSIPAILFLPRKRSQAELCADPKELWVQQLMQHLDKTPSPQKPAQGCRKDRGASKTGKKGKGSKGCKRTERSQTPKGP
Experimental: as §1, §2, §3, §4, §5, §6, §7, §8, §9, §10, §11

[17] = test system: Adjuvant-Induced Arthritis (AIA) rats; test: Adjuvant Induced Arthritis (AIA) rat model, Clinical Score; assay type: in vivo; settings: 25 μg IP on days 7-18
Experimental: Peptides were tested in a rat model of AIA for their anti-inflammatory effects.
Disease Induction: AIA was induced in female Lewis rats aged 7-8 weeks by injection of heat-killed Mycobacerioum tuberculosis (Mt strain H37Ra, Difco Laboratories, USA) dispersed in incomplete Freund's adjuvant to a final concentration of 10 mg/ml (100 μl) at the base of the tail on day 0.
Measurement: Clinical Score (CS, 0-4) for each limb based on (a) joint inflammation, (b) redness, (c) deformity.
Efficacy Protocol 1 (5 rats per group). Peptide/control compound was injected intra-peritoneally (IP, 200 μl) on days 7-11 and 14-18.
Rats were sacrificed (CO2 inhalation) on day 43.
Efficacy Protocol 2 (8 rats per group). Group 1: peptide/PBS was injected intra-peritoneally (IP, 200 μl) on days 7-18; Group 2: PBS was injected IP on days 7-18; Group 3: Dexamethasone (Dexa) was injected IP on days 11 (Clinical Score (CS)1) and 13. Rats were sacrificed on day 43.
Combination Efficacy Protocol 1 (8 rats per group). Group 1: peptide injected IP on days 7-18; Group 2: PBS injected IP on days 7-18; Group 3: Dexa injected IP on day 11 (CS 1) and day 13; Group 4: Dexa injected IP on days 11 and 13 then peptide injected on days 14-22; Group 5: Dexa injected IP on days 11 and 13 then PBS injected on days 14-22.
(§12) Combination Efficacy Protocol 2 (8 rats per group). Group 1: peptide injected IP on days 7-18; Group 2: PBS injected IP on days 7-18; Group 3: Dexa injected IP on day 11 (CS 1) and day 13 then PBS on days 14-22; Group 4: PBS injected IP on days 7-10,12,14; Dexa injected on days 11, 13. Peptide injected on days 15-19.
as §12, with “Protocol 3” for “Protocol 2”, “4: peptide” for “4: PBS”
Control Reagents for Adjuvant Induced Arthritis: Anti-Inflammatory Control: Dexamethasone Sodium Phosphate (Dexacort Forte, Teva) was dissolved in Phosphate Buffer Saline (PBS, GIBCO) to a final concentration of 1 mg/ml and injected in 200 μl (200 μg).
Negative Control: Phosphate Buffer Saline (PBS).

[18] = limit = start of the upper 75% of that peptide's response range

Row | binding to Mig, stated in words [1] | binding to IP-10, stated in words [2] | binding to I-TAC, stated in words [3] | binding to I-309, stated in words [4] | binding to MCP-2 with relatively high affinity (Relative Fluorescence Units) [5] | binding to MCP-4 with relatively high affinity (Relative Fluorescence Units) [6] | binding to Eotaxin, stated in words [7] | binding to Eotaxin 3, stated in words [8] | binding to SDF1-β, stated in words [9] | binding to BCA-1, stated in words [10] | binding to TECK, stated in words [11] | binding to Lymphotactin, stated in words [12] | binding to IL-8 with relatively high affinity (Relative Fluorescence Units) [13] | binding to Mig with relatively high affinity (Relative Fluorescence Units) [1, 18] | binding to IP-10 with relatively high affinity (Relative Fluorescence Units) [2, 18] | binding to RANTES with relatively high affinity (Relative Fluorescence Units) [14] | binding to Eotaxin 3 with relatively high affinity (Relative Fluorescence Units) [8, 18] | binding to Fractalkine, stated in words [15] | binding to Exodus-2, stated in words [16] | Substance | maximal anti-inflammatory effect [17] [%]
1 | bound | bound | bound | bound | > 15,000 RFU | > 15,000 RFU | bound | bound | bound | bound | bound | bound | – | – | – | – | – | – | – | WVFGNAACK [Ph-p8.7] | –
2 | – | – | – | – | > 15,000 RFU | > 15,000 RFU | – | – | bound | bound | bound | bound | > 15,000 RFU | > 15,000 RFU | > 15,000 RFU | > 15,000 RFU | > 15,000 RFU | bound | bound | DYD [Ph-p33] | –
3 | – | – | – | – | – | – | – | – | – | – | – | – | – | – | – | – | – | – | – | WVFGNMICK [P8 Rat] | 40
